# Test results: the supplement of paper PMC6755084
# B1: F1*; the commonest letter at each place (parent)
# chain: GAGACCGCAACTGAAAAGTTGTTATCACTTGTCGTAAGACACTTTGGATGGGTTGAAGTTCTGCACGTAGAAGCAAAAGGC
# Variants of: B1
# Experiment: fraction ligated after 30 min (ligated reads / total reads); higher = more ligase activity
# Conditions: with F1*sub RNA substrate (template-directed ligation), 42 °C
# Outline: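 Oligo-pool templates of ligase ribozyme variants were PCR-amplified, T7-transcribed and gel-purified. Ligated and unligated bands were gel-separated, reverse transcribed with barcoded primers, and MiSeq-sequenced; core bases were filtered at quality ≥20. Fraction ligated per variant was ligated reads over total reads.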
row,Variant,fraction ligated
1,A36C A57C,0.813
2,A36C A57G,0.816
3,A36C A57T,0.844
4,A36C C40A,0.804
5,A36C C40G,0.818
6,A36C C40T,0.818
7,A36C C42A,0.852
8,A36C C42G,0.839
9,A36C C42T,0.889
10,A36C G38A,0.846
11,A36C G38C,0.838
12,A36C G38T,0.838
13,A36C G46A,0.793
14,A36C G46C,0.784
15,A36C G46T,0.778
16,A36C G47A,0.81
17,A36C G47C,0.224
18,A36C G47T,0.356
19,A36C G50A,0.619
20,A36C G50C,0.454
21,A36C G50T,0.746
22,A36C G55A,0.827
23,A36C G55C,0.787
24,A36C G55T,0.797

row,Variant,fraction ligated
1,A36C T43A,0.82
2,A36C T43C,0.806
3,A36C T43G,0.797
4,A36C T44A,0.827
5,A36C T44C,0.815
6,A36C T44G,0.827
7,A36C T45A,0.771
8,A36C T45C,0.753
9,A36C T45G,0.362
10,A36C T49A,0.767
11,A36C T49C,0.712
12,A36C T49G,0.798
13,A36G,0.862
14,A36G A37C,0.835
15,A36G A37G,0.864
16,A36G A37T,0.872
17,A36G A39C,0.791
18,A36G A39G,0.862
19,A36G A39T,0.815
20,A36G A41C,0.795
21,A36G A41G,0.788
22,A36G A41T,0.834
23,A36G A48C,0.773
24,A36G A48G,0.798

row,Variant,fraction ligated
1,A36G A48T,0.0834
2,A36G A56C,0.773
3,A36G A56G,0.814
4,A36G A56T,0.873
5,A36G A57C,0.863
6,A36G A57G,0.88
7,A36G A57T,0.878
8,A36G C40A,0.829
9,A36G C40G,0.841
10,A36G C40T,0.861
11,A36G C42A,0.836
12,A36G C42G,0.844
13,A36G C42T,0.849
14,A36G G38A,0.828
15,A36G G38C,0.846
16,A36G G38T,0.806
17,A36G G46A,0.836
18,A36G G46C,0.803
19,A36G G46T,0.825
20,A36G G47A,0.764
21,A36G G47C,0.0195
22,A36G G47T,0.0714
23,A36G G50A,0.41
24,A36G G50C,0.117

row,Variant,fraction ligated
1,A36G G50T,0.751
2,A36G G55A,0.867
3,A36G G55C,0.773
4,A36G G55T,0.809
5,A36G T43A,0.823
6,A36G T43C,0.81
7,A36G T43G,0.776
8,A36G T44A,0.848
9,A36G T44C,0.85
10,A36G T44G,0.856
11,A36G T45A,0.785
12,A36G T45C,0.614
13,A36G T45G,0.353
14,A36G T49A,0.725
15,A36G T49C,0.4
16,A36G T49G,0.761
17,A36T,0.843
18,A36T A37C,0.838
19,A36T A37G,0.842
20,A36T A37T,0.851
21,A36T A39C,0.821
22,A36T A39G,0.842
23,A36T A39T,0.836
24,A36T A41C,0.774

row,Variant,fraction ligated
1,A36T A41G,0.794
2,A36T A41T,0.819
3,A36T A48C,0.767
4,A36T A48G,0.781
5,A36T A48T,0.792
6,A36T A56C,0.797
7,A36T A56G,0.795
8,A36T A56T,0.823
9,A36T A57C,0.823
10,A36T A57G,0.841
11,A36T A57T,0.824
12,A36T C40A,0.823
13,A36T C40G,0.824
14,A36T C40T,0.83
15,A36T C42A,0.834
16,A36T C42G,0.835
17,A36T C42T,0.856
18,A36T G38A,0.849
19,A36T G38C,0.833
20,A36T G38T,0.834
21,A36T G46A,0.818
22,A36T G46C,0.787
23,A36T G46T,0.791
24,A36T G47A,0.8

row,Variant,fraction ligated
1,A36T G47C,0.233
2,A36T G47T,0.383
3,A36T G50A,0.642
4,A36T G50C,0.467
5,A36T G50T,0.775
6,A36T G55A,0.842
7,A36T G55C,0.817
8,A36T G55T,0.836
9,A36T T43A,0.841
10,A36T T43C,0.814
11,A36T T43G,0.812
12,A36T T44A,0.844
13,A36T T44C,0.82
14,A36T T44G,0.847
15,A36T T45A,0.778
16,A36T T45C,0.783
17,A36T T45G,0.385
18,A36T T49A,0.797
19,A36T T49C,0.742
20,A36T T49G,0.797
21,A37C,0.849
22,A37C A39C,0.782
23,A37C A39G,0.833
24,A37C A39T,0.807

row,Variant,fraction ligated
1,A37C A41C,0.759
2,A37C A41G,0.79
3,A37C A41T,0.816
4,A37C A48C,0.792
5,A37C A48G,0.795
6,A37C A48T,0.775
7,A37C A56C,0.818
8,A37C A56G,0.784
9,A37C A56T,0.804
10,A37C A57C,0.819
11,A37C A57G,0.838
12,A37C A57T,0.831
13,A37C C40A,0.82
14,A37C C40G,0.809
15,A37C C40T,0.858
16,A37C C42A,0.849
17,A37C C42G,0.833
18,A37C C42T,0.857
19,A37C G38A,0.836
20,A37C G38C,0.818
21,A37C G38T,0.844
22,A37C G46A,0.78
23,A37C G46C,0.795
